# According to patent US5866538A, “Insulin preparations containing NaCl” (Novo Nordisk A/S, priority 1996, dated 1999):
# How the values were obtained:
# [1] = Stability of Asp^B28 human insulin solutions with varying Zn, NaCl and pH (Example I); assay type: physicochemical; conditions: 4 weeks at 37° C.
# Protocol: Solutions containing 100 U/ml Asp^B28 human insulin, 2.6 mg/ml phenol, 16 mg/ml glycerol and varying amounts of Zn and sodium chloride were prepared. The pH was varied in the range of 7.2 to 7.5.
# [2] = Stability tests of Asp^B28 human insulin preparations in Penfill cartridges, varying NaCl (Example II); assay type: physicochemical; conditions: phosphate 13.5 mM, 19.6 μg Zn/100 U insulin, pH 7.4
# Protocol: 370.4 mg AspB28 human insulin was dissolved in water by adding 1.6 ml 0.2N HCl and 49 μl zinc chloride solution (40 mg Zn/ml). 40 g of a solution containing 40 mg/ml glycerol, 3.75 mg/g phenol and 4.30 mg/g m-cresol was added to the insulin solution while mixing. 20 g of a solution containing a) 12.0 mg/g disodium phosphate dihydrate+5 μl/g 2N sodium hydroxide, b) 12.0 mg/g disodium phosphate dihydrate+5 μl/g 2N sodium hydroxide+5 mg/g sodium chloride or c) 12.0 mg/g disodium phosphate dihydrate+5 μl/g 2N sodium hydroxide+10 mg/g sodium chloride was added while mixing. pH was adjusted to pH 7.40±0.05 and water added up to 100 ml. The Asp^B28 Human insulin preparations were introduced into Penfill® cartridges and subjected to stability tests at 25° C. and 37° C. The stability data obtained at the two different temperatures and at a phosphate concentration of 13.5 mM, 19.6 μg Zn/100 U insulin and pH=7.4 are summarized in Table 2.
# [3] = 13.1 μg Zn/100 U insulin, NaCl 0 mM, pH 7.2
# [4] = 13.1 μg Zn/100 U insulin, NaCl 0 mM, pH 7.5
# [5] = 13.1 μg Zn/100 U insulin, NaCl 5 mM, pH 7.2
# [6] = 13.1 μg Zn/100 U insulin, NaCl 5 mM, pH 7.5
# [7] = 13.1 μg Zn/100 U insulin, NaCl 20 mM, pH 7.2
# [8] = 13.1 μg Zn/100 U insulin, NaCl 20 mM, pH 7.5
# [9] = 16.3 μg Zn/100 U insulin, NaCl 0 mM, pH 7.2
# [10] = 16.3 μg Zn/100 U insulin, NaCl 0 mM, pH 7.4
# [11] = 16.3 μg Zn/100 U insulin, NaCl 5 mM, pH 7.2
# [12] = 16.3 μg Zn/100 U insulin, NaCl 5 mM, pH 7.5
# [13] = 16.3 μg Zn/100 U insulin, NaCl 20 mM, pH 7.2
# [14] = 16.3 μg Zn/100 U insulin, NaCl 20 mM, pH 7.5
# [15] = 19.6 μg Zn/100 U insulin, NaCl 0 mM, pH 7.2
# [16] = 19.6 μg Zn/100 U insulin, NaCl 0 mM, pH 7.5
# [17] = 19.6 μg Zn/100 U insulin, NaCl 5 mM, pH 7.2
# [18] = 19.6 μg Zn/100 U insulin, NaCl 5 mM, pH 7.5
# [19] = 19.6 μg Zn/100 U insulin, NaCl 20 mM, pH 7.2
# [20] = 19.6 μg Zn/100 U insulin, NaCl 20 mM, pH 7.5
# [21] = 22.8 μg Zn/100 U insulin, NaCl 0 mM, pH 7.2
# [22] = 22.8 μg Zn/100 U insulin, NaCl 0 mM, pH 7.5
# [23] = 22.8 μg Zn/100 U insulin, NaCl 5 mM, pH 7.2
# [24] = 22.8 μg Zn/100 U insulin, NaCl 5 mM, pH 7.5
# [25] = 22.8 μg Zn/100 U insulin, NaCl 20 mM, pH 7.2
# [26] = 22.8 μg Zn/100 U insulin, NaCl 20 mM, pH 7.5
# [27] = 8 months at 25° C., NaCl added 0 mM, total conc. of Cl^- 4.4
# [28] = 8 months at 25° C., NaCl added 17 mM, total conc. of Cl^- 20.8
# [29] = 8 months at 25° C., NaCl added 34 mM, total conc. of Cl^- 37.8
# [30] = 8 weeks at 37° C., NaCl added 0 mM, total conc. of Cl^- 4.4
# [31] = 8 weeks at 37° C., NaCl added 17 mM, total conc. of Cl^- 20.8
# [32] = 8 weeks at 37° C., NaCl added 34 mM, total conc. of Cl^- 37.8
substance,measurement,setting,value
Asp^B28 human insulin,Asp^B28 Des-amido insulins formed,[1]; [3],3.44%
same,Di- & polymers formed,[1]; [3],1.35%
same,Asp^B28 Des-amido insulins formed,[1]; [4],3.57%
same,Di- & polymers formed,[1]; [4],1.36%
same,Asp^B28 Des-amido insulins formed,[1]; [5],3.48%
same,Di- & polymers formed,[1]; [5],1.53%
same,Asp^B28 Des-amido insulins formed,[1]; [6],3.31%
same,Di- & polymers formed,[1]; [6],1.49%
same,Asp^B28 Des-amido insulins formed,[1]; [7],2.54%
same,Di- & polymers formed,[1]; [7],1.72%
same,Asp^B28 Des-amido insulins formed,[1]; [8],2.47%
same,Di- & polymers formed,[1]; [8],1.26%
same,Asp^B28 Des-amido insulins formed,[1]; [9],3.35%
same,Di- & polymers formed,[1]; [9],1.44%
same,Asp^B28 Des-amido insulins formed,[1]; [10],3.41%
same,Di- & polymers formed,[1]; [10],1.46%
same,Asp^B28 Des-amido insulins formed,[1]; [11],1.74%
same,Di- & polymers formed,[1]; [11],0.95%
same,Asp^B28 Des-amido insulins formed,[1]; [12],2.58%
same,Di- & polymers formed,[1]; [12],1.38%
same,Asp^B28 Des-amido insulins formed,[1]; [13],1.91%
same,Di- & polymers formed,[1]; [13],1.05%
same,Asp^B28 Des-amido insulins formed,[1]; [14],2.00%
same,Di- & polymers formed,[1]; [14],1.31%
same,Asp^B28 Des-amido insulins formed,[1]; [15],3.07%
same,Di- & polymers formed,[1]; [15],1.57%
same,Asp^B28 Des-amido insulins formed,[1]; [16],2.85%
same,Di- & polymers formed,[1]; [16],1.80%
same,Asp^B28 Des-amido insulins formed,[1]; [17],2.71%
same,Di- & polymers formed,[1]; [17],1.36%
same,Asp^B28 Des-amido insulins formed,[1]; [18],2.24%
same,Di- & polymers formed,[1]; [18],1.46%
same,Asp^B28 Des-amido insulins formed,[1]; [19],1.56%
same,Di- & polymers formed,[1]; [19],1.15%
same,Asp^B28 Des-amido insulins formed,[1]; [20],1.68%
same,Di- & polymers formed,[1]; [20],1.13%
same,Asp^B28 Des-amido insulins formed,[1]; [21],2.71%
same,Di- & polymers formed,[1]; [21],2.52%
same,Asp^B28 Des-amido insulins formed,[1]; [22],2.34%
same,Di- & polymers formed,[1]; [22],1.45%
same,Asp^B28 Des-amido insulins formed,[1]; [23],2.18%
same,Di- & polymers formed,[1]; [23],1.95%
same,Asp^B28 Des-amido insulins formed,[1]; [24],1.90%
same,Di- & polymers formed,[1]; [24],1.19%
same,Asp^B28 Des-amido insulins formed,[1]; [25],1.51%
same,Di- & polymers formed,[1]; [25],1.05%
same,Asp^B28 Des-amido insulins formed,[1]; [26],1.46%
same,Di- & polymers formed,[1]; [26],1.09%
same,Asp^B28 Des-amido insulins formed,[2]; [27],6.4%
same,Di- & polymers formed,[2]; [27],1.0%
same,Asp^B28 Des-amido insulins formed,[2]; [28],4.1%
same,Di- & polymers formed,[2]; [28],0.8%
same,Asp^B28 Des-amido insulins formed,[2]; [29],3.7%
same,Di- & polymers formed,[2]; [29],0.8%
same,Asp^B28 Des-amido insulins formed,[2]; [30],7.0%
same,Di- & polymers formed,[2]; [30],1.86%
same,Asp^B28 Des-amido insulins formed,[2]; [31],4.2%
same,Di- & polymers formed,[2]; [31],1.29%
same,Asp^B28 Des-amido insulins formed,[2]; [32],3.5%
same,Di- & polymers formed,[2]; [32],1.07%
